For orientation: Kd means a measure of binding affinity in units of concentration.

Bridge positions count the residues as written; N and C are the ends. Ends that are not written are not given here. I, II: the chains in the order shown.

Results on three molecules are retold here after publication PMC11162469, “Discovery of RXFP2 genetic association in resistant hypertensive men and RXFP2 antagonists for the treatment of resistant hypertension” (Scientific Reports, 2024).

In assay [1] the target is rat relaxin family peptide receptor 2 (RXFP2) (rat) (UniProt Q5ECL0).
Assay [2] shares this target. The source holds these as a separate data set.
The target in assay [3] is human relaxin family peptide receptor 2 (RXFP2) (human) (UniProt Q8WXD0).
Assay [4] deals with rat relaxin family peptide receptor 2 (RXFP2) (rat) (UniProt Q5ECL0). This is another data set of the same source.
Assay [5] has the same target. This is another data set of the same source.
Assay [6] deals with RXFP2 mAb 2H3 (rat). The assay can be described thus: SPR; Biacore S200; goat anti-rat Fc gamma immobilised on a Series S CM5 chip, purified recombinant rat anti-RXFP2 antibodies captured at 5 µg/mL; rat or human LDLa-linker protein flowed as analyte at 20, 10, 5, 2.5, 1.75 and 0 nM; 1:1 fit model. On the technique in general: Surface plasmon resonance follows binding to a sensor surface in real time, without labels.

Chain of rat relaxin family peptide receptor 2 (RXFP2) (rat) (Q5ECL0 entry or part of it): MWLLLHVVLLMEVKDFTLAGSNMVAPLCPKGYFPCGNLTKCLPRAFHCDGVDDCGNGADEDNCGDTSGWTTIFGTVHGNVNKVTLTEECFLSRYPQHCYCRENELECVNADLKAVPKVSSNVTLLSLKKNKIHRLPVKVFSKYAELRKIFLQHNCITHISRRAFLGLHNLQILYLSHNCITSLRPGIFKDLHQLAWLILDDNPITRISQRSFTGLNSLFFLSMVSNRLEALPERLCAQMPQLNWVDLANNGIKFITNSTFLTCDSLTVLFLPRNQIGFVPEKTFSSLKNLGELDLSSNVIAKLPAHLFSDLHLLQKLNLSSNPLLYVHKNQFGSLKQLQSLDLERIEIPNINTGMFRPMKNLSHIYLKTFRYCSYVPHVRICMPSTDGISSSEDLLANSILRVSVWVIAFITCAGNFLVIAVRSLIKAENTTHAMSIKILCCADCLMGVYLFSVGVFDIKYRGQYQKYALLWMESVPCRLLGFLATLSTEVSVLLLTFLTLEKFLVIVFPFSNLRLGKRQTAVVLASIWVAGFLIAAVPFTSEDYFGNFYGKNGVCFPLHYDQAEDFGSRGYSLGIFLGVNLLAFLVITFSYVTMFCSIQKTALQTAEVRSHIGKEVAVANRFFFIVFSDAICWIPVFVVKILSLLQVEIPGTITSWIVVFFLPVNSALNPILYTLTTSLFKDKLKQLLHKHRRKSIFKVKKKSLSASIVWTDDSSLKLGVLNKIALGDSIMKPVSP
Chain of human relaxin family peptide receptor 2 (RXFP2) (human) (Q8WXD0 whole entry): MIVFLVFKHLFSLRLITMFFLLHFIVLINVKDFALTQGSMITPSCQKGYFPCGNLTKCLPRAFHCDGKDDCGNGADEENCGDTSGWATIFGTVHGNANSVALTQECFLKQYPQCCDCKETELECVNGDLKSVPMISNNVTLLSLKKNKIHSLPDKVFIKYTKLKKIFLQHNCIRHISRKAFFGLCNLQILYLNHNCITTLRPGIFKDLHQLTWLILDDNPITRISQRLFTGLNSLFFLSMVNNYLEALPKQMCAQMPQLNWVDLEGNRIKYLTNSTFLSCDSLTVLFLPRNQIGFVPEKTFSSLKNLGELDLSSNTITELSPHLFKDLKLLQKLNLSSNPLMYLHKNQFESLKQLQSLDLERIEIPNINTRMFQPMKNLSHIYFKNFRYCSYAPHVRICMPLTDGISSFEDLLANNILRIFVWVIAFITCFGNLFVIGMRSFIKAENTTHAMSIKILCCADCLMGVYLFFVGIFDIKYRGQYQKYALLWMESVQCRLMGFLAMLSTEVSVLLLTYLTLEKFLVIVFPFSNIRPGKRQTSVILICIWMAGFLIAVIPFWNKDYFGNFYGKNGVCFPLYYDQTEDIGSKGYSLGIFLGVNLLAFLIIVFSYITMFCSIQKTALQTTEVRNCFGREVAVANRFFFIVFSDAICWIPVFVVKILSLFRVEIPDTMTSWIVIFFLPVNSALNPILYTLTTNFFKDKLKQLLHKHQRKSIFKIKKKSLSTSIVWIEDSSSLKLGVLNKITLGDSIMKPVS

B1: Rat INSL3 (ligand)
chain 1: SVATNAVHRCCLTGCTQQDLLGLCPH
chain 2: LRSPQPPEARAKLCGHHLVRALVRVCGGPRWSPEA
modifications: disulfide I:10-I:15, I:11-II:14, I:24-II:26
On to B1, for which the EC50, aldosterone secretion (ELISA) from H295R cells stably expressing rat RXFP2 in assay [1] stood at 2.2 nM. Further, in assay [2], the EC50, cortisol secretion (ELISA) from H295R cells stably expressing rat RXFP2 was found to be 0.16 nM.

B2: RXFP2 mAb 4G6 (antibody, V domains shown)
VH: EVQLQQSGPELVKPGASVKLSCKASGYTFTSYVMHWVKQKPEQGLEWIGYKNPSNDGIKYNEKFKGKATLTSDKSSNIAYMELFSLTSEDSAVYYCARSDFGSVWAMDYWGQGTSVTVSS
VL: SIVMTQTPKFLLVSAGDRVTITCKASQSVNDDIVWYQQKPGQSPKLLIYYASNRYTGVPDRFTGSGYGTDFTFTISTVQAGDLAVYFCQQDYSSPFTFGSGTKLEIK
In assay [3], B2 gave a % Max Response, INSL3 (EC80)-stimulated cAMP in HEK293 stably expressing human RXFP2 of 84.5% and an IC50, INSL3 (EC80)-stimulated cAMP in HEK293 stably expressing human RXFP2 of 15.6 nM. Also, in assay [4], the % Max Response, INSL3 (EC80)-stimulated cAMP in HEK293 stably expressing rat RXFP2 is 82.5%; the IC50, INSL3 (EC80)-stimulated cAMP in HEK293 stably expressing rat RXFP2 was 14.1 nM; the IC50, INSL3-stimulated CYP11B1 mRNA in H295R stably expressing rat RXFP2 turned out to be 0.33 nM; the IC50, INSL3-stimulated CYP11B2 mRNA in H295R stably expressing rat RXFP2 was found to be 0.1 nM. Further, in assay [5], the IC50, INSL3-induced cortisol release (ELISA) from H295R stably expressing rat RXFP2 was determined as 0.26 nM.

B3: rat LDLa-linker protein (ratRXFP2-LDLa-linker(20-88)) (domain or fragment)
chain: GSNMVAPLCPKGYFPCGNLTKCLPRAFHCDGVDDCGNGADEDNCGDTSGWTTIFGTVHGNVNKVTLTEE
B3: in assay [6], the equilibrium dissociation constant (Kd) stood at 582 nM.
